Data on 18 sequences can be found in the DeepSol protein solubility set.

The nature of the data set: soluble on expression in E. coli; label from the status in PepcDB or PDB records.
For “MLRVRCLRGGSRGAEAVHYIGSRLGRTLTGWVQRTFQSTQAATASSRNSCAADDKATEPLPKDCPVSSYNEWDPLEEVIVGRAENACVPPFTIEVKANTYEKYWPFYQKQGGHYFPKDHLKKAVAEIEEMCNILKTEGVTVRRPDPIDWSLKYKTPDFESTGLYSAMPRDILIVVGNEIIEAPMAWRSRFFEYRAYRSIIKDYFHRGAKWTTAPKPTMADELYNQDYPIHSVEDRHKLAAQGKFVTTEFEPCFDAADFIRAGRDIFAQRSQVTNYLGIEWMRRHLAPDYRVHIISFKDPNPMHIDATFNIIGPGIVLSNPDRPCHQIDLFKKAGWTIITPPTPIIPDDHPLWMSSKWLSMNVLMLDEKRVMVDANEVPIQKMFEKLGITTIKVNIRNANSLGGGFHAWTCDVRRRGTLQSYLD”, the “soluble on expression in E. coli” value was “soluble”.
Next, “MLSIKGKKWRNWTGNVEGTPHYTMYPESIQDVVEVVGLARKKGKKIRVVGSGHSFTPLVQTEEVLVSLDELKGIVNIDAEKMVAEVWAGTKLYDLGKLLEEKGYAQENLGDIDSQSIAGAISTGTHGTGITFGSLSTQVIEITAVLSNGESIVCSETENVEYWRAFQLSLGMLGIIVKIKLKVIPAYSLVYESEKQSLSTVMNKLEEYKKHRHFEFFVFPYSDEVQVKLTNETTNTGSDLKWHKLKVELLENRMFSLLSKGCKWFPSISKGVSRLSAKAVPNTKIIGPSYEVFATSRTVPFYEMEYSIPSKYMRTVVEEISNLIEKKKYKVHFPIECRYVKGDDIWLSPAYGRDSAYIAVHMYKGMKYAAYFGEVEKIFLKYEGRPHWGKMHTLSYEQLQDIYPEFHSFLQARKSLDELGMFFNPYAEKLFIPLFAGQ”: “not soluble”; “MLSKISESLANLSGAERKVAECALAEPKWFVHAAVAEIAERASVSQPTVIRFCRSLGYKGLPEFKLALSASIGHEGMPYVHEELNADDDMASVVEKVLGNAAASL”: “not soluble”.
As for “MLSLAFGVNDIYEYEGKEYKLDLAFDNVLRVIDLTEDNSLSDVFRANLAIDVLFADDMPWPRSNEEDEYANIEEKSLVLIDIFTNYIVKENDDGLLYDIDGNKMPSATNNEDAEEIASYSLTQDADYIYASFLQDYNIDLLDSRGKMHWYKFRALLESLRDDTTIKTIIGIRQAELPSGKGTEKERNELIKLKNRYKLKD”, the entry is “not soluble”; as for “MLSLFALSEENKPELDCVANPTLLPHDIMYFDGFLSSEDEAFVADRLDAGEWSTELKRRVQHFGYRYDYKVRAVTPDAYLGPLPPWLGLFAERLVADGYCRTVPDQVIANEYLLGQGISAHVDCVPCFDDTIVSISLLSACEMVFRDLRGPGIRSVLHPRSGVLLRGSSRYDWTHEIPARKSDIVNGVKTARSRRISLTFRKVLGLKRPLEHHHHHH”, “not soluble”; as for “MLSLPPPEFYKLWIINKSPYQLFNIYRSGIMKVKVLDASAIIHGYNPIIEEGEHYTTPEVLEEIESKKIIVEQALDFGKLKIMSPNREYIKKVEEVVKKTGDNLSQQDIGVLALALNLNAILYTDDYGIQNVAKKLNIEVRGIAFEPTNKDFIWRKICEGCKKLYPVDYEEDICEICGSPLKRKMVKSRLKKKRKKKLEHHHHHH”, “soluble”.
As to “MLSVSPLLQSPSSASMRFLSLDAYGRVLDWISWQDAACLYVRNAVSWTLGDPCLSIHGGISRLTGKRSVIALHPIIASRGHARTYVPVPTPALTNQALFARDDHLCLYCGQQFSRFQLTRDHVIPISKGGLDTWENVVTACFHCNSLKANRTPQQAGMRLLAVPYRPSWIEHLILSNRNILADQMAFLKAQLPKRSKLSRNLEHHHHHH”, the “soluble on expression in E. coli” value is listed as “not soluble”.
For the sequence “MLTFNDNKAGMNGLDKEKITKVIEENTSASYSSFSKKQQSRIEEKVLEIKNRLQTATREERQKSEILMENLEMKLESSRDLSRDCVCIDMDAYFAAVEMRDNPALRTVPMAVGSSAMLSTSNYLARRFGVRAGMPGFISNKLCPSLTIVPGNYPKYTKVSRQFSQIFMEYDSDVGMMSLDEAFIDLTDYVASNTEKKTFKRHRFGGDCPCWLPRFDENENTLEDLKIEESICPKCEKSRKIYYDHVEFGTGREEAVREIRFRVEQLTGLTCSAGIASNFMLAKICSDLNKPNGQYVLENDKNAIMEFLKDLPIRKVGGIGRVCEAQLKAMDIQTVGDMNLKKNLYPLCFTPLSQESFLRTALGLPGRPSESDPRRKSISVERTFSPTSDFNILLEEHQEICRMLEEDVRKSGIVGGKTVTLKLKLSSFDVLTRSLTPSDVVKSLEDIQKFSLELLEKEKGKEIRLLGVRLSQLIFEEDEKKRSKTVCQKILKTITDKYKAMFSSIFLRHFISDHRVLE”, the “soluble on expression in E. coli” value is “not soluble”.
In the case of “MLTKANPPPSKTSPLKVWAVSDGRAGIEAQVVGLAEAISRLAPCEVTVKRVGWQGNIGRLPWWLNLLPKRWLTQESGVPDSRNPDDWPDLWIAAGRATLPLSIRAKRWSGGKSFVVQIQDPRVPPHMFDLVIPPKHDRMSGDNILPITGSPHRVTPQRLAAEYEAFQDLIEPLPRPRVAVLVGGKSKAFDLSSERAAQIAHSIQIPLEQDGGSLLMTFSRRTPETARALMTARLRHLPGVVWNGEGPNPYFAFLAAADYILVTEDSTNMATEAASTGKPVFVLKMDGSSLKFRLFHEELERQGAARPYGGAFHGWTYTPVNETDRAAREVLARIGLEHHHHHH”, the “soluble on expression in E. coli” value is “not soluble”.
“MLTPPPDSKISTTDKSLDKLSAPLDMLKQMNESTMEQTKLDELRKKMSLQAEILNKAKADNDMFFRLLIELMSLKLQGELFKEQLSKISKESGYDSAQSALIQATNSEGQSPLQYALQKQDFSTAKYFLDNGAKAGPIEKAVFEIALDSKAAKEFGFPPLPPEKEKLHPVKNFGLVLGIKTTSVDGTPSQFGHIAPTYQLMTDSVSHFAKSHPGNKNFQEIANAFQFSNEASAFKFSTPQRNPEAGNDLARRIQGGELTTIPVSCKGHAMGLSYVPDGPGSKSGYLVYTNRGLGAKSSEHGTHIFRIEDSSKITPEFINNMTSGHSNGASHDEIMSQIKAAAGNKEPIHHIKQKGQKNDNCTIANSKSNIEGILLCQKAREVGGFDKLTESDMDSVKKEYKEFTKHMRVEKVNELAKALKENPQDPDLNNLTKEYLKQHPNADPKLKQTLETALKQASESSMTLSQPGKTI”: the “soluble on expression in E. coli” value is on record as “not soluble”.
Consider “MLTPPSLSLYIHIPWCVQKCPYCDFNSHAQKGEIPEQEYLDALLQDLDRDIERYQLKGDPRLLHSIFIGGGTPSLISAEGIARLLQGVAERIAFKPEIEITMEANPGTIEAQRFAGYRTAGVTRISIGVQSFEPEKLARLGRIHGQQEAVRAAQLAHQIGLNSFNLDLMHGLPDQTPEQALADLDQAIALNPPHLSWYQLTIEPNTLFYSKPPKLPDEDALWDIFELGHQKLSDAGYVQYEISGYSKPGYQCQHNLNYWRFGDYLGIGCGAHGKLSFADGRIVRTTKTKHPRGYLAALNNLAKAYLDSEQLVADQDKPFEFFMNRFRLIEPCPKADFTATTGLTIDVIRPTLDWALSEGYLSEDDQHWQITEKGKLFLNDLLEAFMADEEELEHHHHHH”, for which the “soluble on expression in E. coli” value was “not soluble”.
As for “MLTQQQIDHIYDSLGCPLHFLWSYIGTAHGLSHDQADPDSFEERKKDFFFIVGKLLDDGLLKLGNRKTELIMEGNIEELVEMFRKSLPASDEEIDQEVGGLWFFTDCPFVAAWVYKGAGENGEDEYDWC”, the entry is “not soluble”; as for “MLVVLAISLAVTAVCAQYGSGPANNPPASSYSSNVYYPPPVYGSVYWDYDSGSREHRHKQCPRLRAYVGEFPGIPEEAFYPPIIRYVKYNRKVTALVVCDRDEKNLNFLFARHNKTRDVRSASVVAIGSTAGVTLVCNRDDRRYEGFVIDMNATTNGFSKKIEITQLTCLGLDKTIIGLPVEHGVQQLAQKIQEILEDDFFVPVIPSRRKRQAGGATANSAESTTEAADTESTTEAAATETPAAESTTTEASATDAAATEASATDAAATEGAVTKAAAGVTEESATEVITVATTPASPDAALNNAINELGKILGQVF”, “not soluble”.
Next, “MLWWEEVEDSYEREDVQKKTFTKWVNAQFSKFGKQHIENLFSDLQDGRRLLDLLEGLTGQKLPKEKGSTRVHALNNVNKALRVLQNNNVDLVNIGSTDIVDGNHKLTLGLIWNIILHWQVKNVMKNIMAGLQQTNSEKILLSWVRQSTRNYPQVNVINFTTSWSDGLALNALIHSHRPDLFDWNSVVSQQSATQRLEHAFNIARYQLGIEKLLDPEDVDTTYPDKKSILMYITSLFQVLPQQVSIE”: “soluble”.
Next, “MLYQSETLQLHWLENGIAELVFDAPGSVNKLDTKTVANLGEALNVLEKQSELKGLLLRSAKTALIVGADITEFLSLFNAPPEKLHQWLVFANTIFNRLEDLPVPTISAINGYALGGGCECILATDFRIASPEARIGLPETKLGIMPGFGGSVRLPRLLGADSALEIIATGKDVTANDALKIGLVDAVVDPEKLVGSALTMLKQAIDGKLDWQAARRPKLEPLKLNPTEAAMCFTIAKGRVMQVAGKHYPAPLTAVKTIEAAAKFGRTEALNLETNSFVPLAGSNEARALVGIFLNDQYVKAQAKKLSKGVAAPKLAAVLGAGIMGGGIAYQSALKSVPVIMKDINENSLDLGMNEAAKLLNKQLERGKVDGLKMASILATIRPTLDYAGIERAQVIVEAVVENPKVKAAVLAEVEALIGEDTVLASNTSTIPIDQLAKSLKRPENFCGMHFFNPVHRMPLVEIIRGAKTSDKTLAAVVAYATQMGKTPIVVNDCPGFFVNRVLFPYLAGFGMLVRDGGDFHQIDKVMEKQFGWPMGPAYLLDVVGIDTAHHAQAVMAAGFPERMNKDYRDAVDVMFDNQRFGQKNGQGFYRYTQDAKGKPRKENDEQVDKLLAEISQPLQEFSDEDIIARTMIPMINEVVRCLEEGIIASAAEGDMALVYGLGFPPFHGGVFRYLDTLGSANYVEMAQRYAHLGALYHVPAGLRAKAEHNESYYPVAAALLDVSTNQPA”: “not soluble”; “MMDYPSIDTLLESAHIVTLPMKYPFMGLSERQAVLFEGPNSWAEYSPFMGCNDTRMWLASAIEYGWGNTNVLSVPNLDLDNTNFASRSKYGYIANPQTSNKDHSDNKRFYTQTKNHREIPVNAILPDIPASKMSEILGKDLQGCKCVKIKVGKHFQDRDIHRIRAVLDFMGADTMLRLDANCKWNVSETLNNLDVLEDNDLLENVSYIEQPCRTTRELITLKQKMDTRGYVTKIAIDESLRDLLLHWQKNRKWSNNSGITYTTELRETLSACDMLVLKLQPMGGMRAVADLLESIKNNIKVNVGYTVSSSLETSLGIEMGLALALNLPNITLPVGLATAGLLDADITDDPLLPNKGYITPRKIEVNKKLLNRYAADKRHVVWWHRRIRAAHRALFQDLSD”: “soluble”.
As for “MMFKNFPFFKGKKDTSFDHLVEEVKKGYIPEHIAIIMDGNGRWAKRRAMPRIAGHHEGMQVVKKITKFASKLNVKVLTLYAFSTENWKRPKKEVDYLMQLPEEFLGTFLPELIEENVQVRVIGQQDRLPTHTRRAMEKAMEETKENTGLILNFALNYGSRDEIVSAVQHMMKDSEEGKVRVEDVSEEMLSSYLMTSSLPDPELLIRTSGELRISNFMLWQIAYSEFWFTDVYWPDFTEEHLLNAITDFQHRGRRFGGV”, the “soluble on expression in E. coli” value is “not soluble”.
As to “MMFSLSKELEEYRAKIREYAQKTVREYAKQMDETNDGGDKIVKDLGEMGLLGMKQPTKYGGLGLGEMAFAIATEELGAESGGASHSLHTQQNALQLLVSVGGDSAQEWIEKGIKAKEVYAVALTEPQAGSDLGALQTTAKPDGNELVLNGEKIFTSAASFSTKMVVLARTSGNPGDRQGISLLLIDSKLPGIEIHKLDIMGIRGAGVSYVKFNNVRIPKDSIIGKEGDAYRGALKALMVSRNGYAGIAVGIARGALEEAISRAQSRKQFGKALIEQEWISFNLADAYIKVEAARLLTWRAAQLFDNDYEATTEASMAKYYAAVTATEVTRLALHIFGGHGLNRGSKVERLYRDAKIMEIAEGTNEMQLVAVSRLFQPKK”, the “soluble on expression in E. coli” value is “soluble”.
